Molecular target: Dendroides canadensis thermal hysteresis proteins (purified THPs)

Substance	Thermal Hysteresis (°C.) of a 4 mg/ml THP solution [°C.]
Gelatin	3.13
Tipula ice-nucleator protein PIN	3.98
Tipula lipoprotein ice-nucleator (LPIN)	3.49
